The target in this experiment is AMA1 on P. falciparum 3D7 strain parasites (Plasmodium falciparum). Nature of the experiment: cell-based or functional assay.

Substance rat mAb 4G2dc1 (antibody) came in with an IC30 concentration (30% inhibition against the 3D7 target parasites, GIA) of 1800 µg/mL and an Inhibition (GIA at 1 mg/ml against the 3D7 target strain) of 22%.

Values taken from patent publication US20160279221A1.
